In patent US20020137113A1 (Genentech, published 2002):

Molecular target: trkB.IgG (untagged trk.IgG fusion of the trkB extracellular domain and IgG-1 Fc) (human, UniProt Q16620 32-430)
Test: competitive displacement of iodinated NT5 from trkB.IgG in 293 cell supernatant

Chain of trkB.IgG (untagged trk.IgG fusion of the trkB extracellular domain and IgG-1 Fc) (Q16620 32-822): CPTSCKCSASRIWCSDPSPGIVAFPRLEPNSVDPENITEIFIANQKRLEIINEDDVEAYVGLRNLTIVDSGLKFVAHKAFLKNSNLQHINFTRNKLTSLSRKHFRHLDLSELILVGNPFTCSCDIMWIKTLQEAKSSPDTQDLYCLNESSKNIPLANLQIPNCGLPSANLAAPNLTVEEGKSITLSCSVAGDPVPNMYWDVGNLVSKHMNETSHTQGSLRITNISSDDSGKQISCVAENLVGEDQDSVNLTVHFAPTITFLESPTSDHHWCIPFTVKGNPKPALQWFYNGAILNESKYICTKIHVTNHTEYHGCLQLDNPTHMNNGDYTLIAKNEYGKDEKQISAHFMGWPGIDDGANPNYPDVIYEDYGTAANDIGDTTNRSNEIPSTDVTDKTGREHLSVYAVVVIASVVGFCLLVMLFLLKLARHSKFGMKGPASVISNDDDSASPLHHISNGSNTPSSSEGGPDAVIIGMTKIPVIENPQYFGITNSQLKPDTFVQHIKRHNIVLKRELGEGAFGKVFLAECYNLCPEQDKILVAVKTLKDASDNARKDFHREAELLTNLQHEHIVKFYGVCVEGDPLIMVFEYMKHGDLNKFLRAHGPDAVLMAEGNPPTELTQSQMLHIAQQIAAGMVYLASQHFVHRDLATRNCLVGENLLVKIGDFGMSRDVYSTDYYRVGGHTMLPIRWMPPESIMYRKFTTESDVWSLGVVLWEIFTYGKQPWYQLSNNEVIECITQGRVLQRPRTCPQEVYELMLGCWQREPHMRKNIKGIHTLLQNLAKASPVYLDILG

IC50: 0.0311 nM
B1: neurotrophin 5 (NT5) (ligand, UniProt P34130 81-210, looked up)
chain: GVSETAPASRRGELAVCDAVSGWVTDRRTAVDLRGREVEVLGEVPAAGGSPLRQYFFETRCKADNAEEGGPGAGGGGCRGVDRRHWVSECKAKQSYVRALTADAQGRVGWRWIRIDTACVCTLLSRTGRA
notes: It is printed as NTS in several places, which I read as a misprint of NT5; The tracer in the displacement assay was the iodinated form; also called NTS
